# From patent US20250059297A1
# B1: Sacituzumab govitecan antibody analog (antibody, INN chains, looked up, V domains shown)
# VH: QVQLQQSGSELKKPGASVKVSCKASGYTFTNYGMNWVKQAPGQGLKWMGWINTYTGEPTYTDDFKGRFAFSLDTSVSTAYLQISSLKADDTAVYFCARGGFGSSYWYFDVWGQGSLVTVSS
# VL: DIQLTQSPSSLSASVGDRVSITCKASQDVSIAVAWYQQKPGKAPKLLIYSASYRYTGVPDRFSGSGSGTDFTLTISSLQPEDFAVYYCQQHYITPLTFGAGTKVEIKR
# B2: DS-1062 antibody analog (antibody, INN chains, looked up, V domains shown)
# VH: QVQLVQSGAEVKKPGASVKVSCKASGYTFTTAGMQWVRQAPGQGLEWMGWINTHSGVPKYAEDFKGRVTISADTSTSTAYLQLSSLKSEDTAVYYCARSGFGSSYWYFDVWGQGTLVTVSS
# VL: DIQMTQSPSSLSASVGDRVTITCKASQDVSTAVAWYQQKPGKAPKLLIYSASYRYTGVPSRFSGSGSGTDFTLTISSLQPEDFAVYYCQQHYITPLTFGQGTKLEIK
# Key:
# [1] = molecular target: human TROP2 (hTROP2) on cells (human); assay: cell-based or functional assay
# [2] = molecular target: human TROP2 (hTROP2) on cells (human); assay: flow cytometry, NCI-N87 cells (express HER2 and TROP2)
# [3] = molecular target: human TROP2 (hTROP2) on cells (human); assay: flow cytometry, NCI-H292 cells (express HER2 and TROP2)
# Chain of human TROP2 (hTROP2) on cells (human) (P09758 whole entry): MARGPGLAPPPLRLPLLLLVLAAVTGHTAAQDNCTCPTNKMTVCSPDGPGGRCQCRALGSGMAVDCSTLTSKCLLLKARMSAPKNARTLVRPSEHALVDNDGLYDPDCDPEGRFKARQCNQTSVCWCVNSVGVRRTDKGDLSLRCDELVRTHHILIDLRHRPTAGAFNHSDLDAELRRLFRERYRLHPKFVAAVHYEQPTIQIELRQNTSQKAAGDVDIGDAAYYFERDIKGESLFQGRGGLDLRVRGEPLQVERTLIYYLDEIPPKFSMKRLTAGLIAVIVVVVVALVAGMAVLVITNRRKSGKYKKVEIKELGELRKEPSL
Binder,"endocytosis, direct detection: MFI [1]","endocytosis, direct detection: Percentage of Positive Population [1] [%]","endocytosis, indirect detection: MFI [1]","endocytosis, indirect detection: Percentage of Positive Population [1] [%]",endocytosis: MFI [1],endocytosis: Percentage of Positive (%) [1] [%],flow cytometry test result (%) [2] [%],flow cytometry test result (%) [3] [%]
B1,16600,70.1,16100,72.2,23000,51.2,98.7,97.4
B2,,,,,21800,43.9,,
